From article PMC6989608

Biological target: Recombinant PP99 gp55 tail spike protein (Pectobacterium phage PP99)
Assay: SEC; gel-filtration of purified PP99 gp55 on a calibrated Superdex 200 10 x 300 column; oligomeric state

“Recombinant PP99 gp55 tail spike protein (natural protein)” showed a stoichiometry N of 3.
